From US20080292615

Key:
[1] = target: T1, Corneodesmosin, Q15517
T1 chain: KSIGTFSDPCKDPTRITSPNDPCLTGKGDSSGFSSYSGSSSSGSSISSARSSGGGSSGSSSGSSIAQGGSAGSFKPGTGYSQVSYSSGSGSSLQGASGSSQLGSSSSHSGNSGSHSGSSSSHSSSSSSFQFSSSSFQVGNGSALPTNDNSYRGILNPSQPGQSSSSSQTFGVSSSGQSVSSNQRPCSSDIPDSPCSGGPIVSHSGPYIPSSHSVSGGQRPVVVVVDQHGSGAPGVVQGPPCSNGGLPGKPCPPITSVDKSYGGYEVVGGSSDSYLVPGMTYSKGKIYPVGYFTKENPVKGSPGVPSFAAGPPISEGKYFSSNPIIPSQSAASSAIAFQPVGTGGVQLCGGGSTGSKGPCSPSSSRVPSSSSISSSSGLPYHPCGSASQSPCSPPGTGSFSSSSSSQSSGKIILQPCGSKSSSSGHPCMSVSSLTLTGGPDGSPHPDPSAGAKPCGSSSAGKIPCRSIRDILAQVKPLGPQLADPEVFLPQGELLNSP

[2] = target: T2, Desmocollin 1, Q08554
T2 chain: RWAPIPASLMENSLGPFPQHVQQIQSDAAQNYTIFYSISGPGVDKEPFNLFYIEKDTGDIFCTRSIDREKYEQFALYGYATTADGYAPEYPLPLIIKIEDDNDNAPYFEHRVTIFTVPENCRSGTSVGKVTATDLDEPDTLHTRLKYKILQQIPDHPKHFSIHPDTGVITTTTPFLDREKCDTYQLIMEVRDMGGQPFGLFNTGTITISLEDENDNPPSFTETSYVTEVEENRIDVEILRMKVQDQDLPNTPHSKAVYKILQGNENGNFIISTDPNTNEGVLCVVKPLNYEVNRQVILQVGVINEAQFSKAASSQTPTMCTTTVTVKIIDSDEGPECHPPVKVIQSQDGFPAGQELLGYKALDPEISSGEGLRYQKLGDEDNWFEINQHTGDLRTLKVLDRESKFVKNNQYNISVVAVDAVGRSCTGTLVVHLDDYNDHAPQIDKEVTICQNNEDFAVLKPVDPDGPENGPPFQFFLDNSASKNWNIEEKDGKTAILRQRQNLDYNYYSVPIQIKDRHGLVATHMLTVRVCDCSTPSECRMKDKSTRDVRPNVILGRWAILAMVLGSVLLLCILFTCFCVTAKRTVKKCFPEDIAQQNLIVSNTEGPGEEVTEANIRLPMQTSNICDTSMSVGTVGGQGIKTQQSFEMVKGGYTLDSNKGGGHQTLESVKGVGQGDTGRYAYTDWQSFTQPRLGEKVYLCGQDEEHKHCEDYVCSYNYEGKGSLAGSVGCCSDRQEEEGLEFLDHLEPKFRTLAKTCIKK

[3] = target: T3, Desmoglein, Q02413
T3 chain: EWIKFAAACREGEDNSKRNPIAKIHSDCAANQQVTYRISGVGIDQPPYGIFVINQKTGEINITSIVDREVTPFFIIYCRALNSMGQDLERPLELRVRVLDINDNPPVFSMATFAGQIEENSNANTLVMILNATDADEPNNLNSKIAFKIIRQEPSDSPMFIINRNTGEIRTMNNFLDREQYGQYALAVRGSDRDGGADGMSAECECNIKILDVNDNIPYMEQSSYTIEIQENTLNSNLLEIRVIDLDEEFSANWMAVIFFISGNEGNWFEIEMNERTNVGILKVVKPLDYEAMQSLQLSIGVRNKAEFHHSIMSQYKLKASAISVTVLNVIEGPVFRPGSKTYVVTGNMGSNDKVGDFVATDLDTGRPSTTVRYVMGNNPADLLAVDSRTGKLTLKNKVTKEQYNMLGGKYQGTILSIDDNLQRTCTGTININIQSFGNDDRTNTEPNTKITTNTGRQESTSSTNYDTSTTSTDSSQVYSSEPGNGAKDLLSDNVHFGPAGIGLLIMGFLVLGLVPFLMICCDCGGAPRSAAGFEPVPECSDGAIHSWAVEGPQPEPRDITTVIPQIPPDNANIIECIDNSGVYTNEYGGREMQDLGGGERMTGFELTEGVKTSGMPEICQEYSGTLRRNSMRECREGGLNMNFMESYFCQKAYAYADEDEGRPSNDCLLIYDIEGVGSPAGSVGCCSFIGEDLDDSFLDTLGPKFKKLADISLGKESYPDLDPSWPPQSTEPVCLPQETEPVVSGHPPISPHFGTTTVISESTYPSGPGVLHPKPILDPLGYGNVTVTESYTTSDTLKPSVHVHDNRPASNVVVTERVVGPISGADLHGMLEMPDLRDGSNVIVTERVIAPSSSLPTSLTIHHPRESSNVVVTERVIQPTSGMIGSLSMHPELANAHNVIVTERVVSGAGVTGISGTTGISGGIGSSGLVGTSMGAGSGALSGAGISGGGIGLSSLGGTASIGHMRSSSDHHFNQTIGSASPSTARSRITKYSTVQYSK

[4] = target: Desmoplakin, P15924
[5] = target: Envoplakin, Q92817
[6] = target: T4, Plakoglobin, P14923
T4 chain: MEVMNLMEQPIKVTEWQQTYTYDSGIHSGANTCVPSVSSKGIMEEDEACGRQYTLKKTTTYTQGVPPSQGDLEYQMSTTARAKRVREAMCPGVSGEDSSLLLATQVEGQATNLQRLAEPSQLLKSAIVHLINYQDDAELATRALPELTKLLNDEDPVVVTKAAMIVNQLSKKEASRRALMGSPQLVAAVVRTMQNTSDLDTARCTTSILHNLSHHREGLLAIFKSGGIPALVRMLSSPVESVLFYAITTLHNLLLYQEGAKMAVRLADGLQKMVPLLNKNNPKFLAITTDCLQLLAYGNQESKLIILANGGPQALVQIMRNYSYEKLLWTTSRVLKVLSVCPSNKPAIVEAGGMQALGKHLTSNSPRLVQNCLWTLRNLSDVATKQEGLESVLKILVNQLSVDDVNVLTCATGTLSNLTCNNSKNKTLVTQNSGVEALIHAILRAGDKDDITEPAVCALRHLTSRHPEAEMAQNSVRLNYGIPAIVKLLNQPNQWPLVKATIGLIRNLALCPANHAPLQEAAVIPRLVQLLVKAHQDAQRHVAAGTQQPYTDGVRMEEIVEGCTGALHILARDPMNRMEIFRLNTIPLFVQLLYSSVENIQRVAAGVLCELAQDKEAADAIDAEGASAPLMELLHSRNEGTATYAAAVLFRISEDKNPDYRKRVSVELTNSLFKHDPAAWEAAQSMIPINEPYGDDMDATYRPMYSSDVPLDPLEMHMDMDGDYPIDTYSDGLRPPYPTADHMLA

Sequence of Desmoplakin, P15924 (P15924 whole entry): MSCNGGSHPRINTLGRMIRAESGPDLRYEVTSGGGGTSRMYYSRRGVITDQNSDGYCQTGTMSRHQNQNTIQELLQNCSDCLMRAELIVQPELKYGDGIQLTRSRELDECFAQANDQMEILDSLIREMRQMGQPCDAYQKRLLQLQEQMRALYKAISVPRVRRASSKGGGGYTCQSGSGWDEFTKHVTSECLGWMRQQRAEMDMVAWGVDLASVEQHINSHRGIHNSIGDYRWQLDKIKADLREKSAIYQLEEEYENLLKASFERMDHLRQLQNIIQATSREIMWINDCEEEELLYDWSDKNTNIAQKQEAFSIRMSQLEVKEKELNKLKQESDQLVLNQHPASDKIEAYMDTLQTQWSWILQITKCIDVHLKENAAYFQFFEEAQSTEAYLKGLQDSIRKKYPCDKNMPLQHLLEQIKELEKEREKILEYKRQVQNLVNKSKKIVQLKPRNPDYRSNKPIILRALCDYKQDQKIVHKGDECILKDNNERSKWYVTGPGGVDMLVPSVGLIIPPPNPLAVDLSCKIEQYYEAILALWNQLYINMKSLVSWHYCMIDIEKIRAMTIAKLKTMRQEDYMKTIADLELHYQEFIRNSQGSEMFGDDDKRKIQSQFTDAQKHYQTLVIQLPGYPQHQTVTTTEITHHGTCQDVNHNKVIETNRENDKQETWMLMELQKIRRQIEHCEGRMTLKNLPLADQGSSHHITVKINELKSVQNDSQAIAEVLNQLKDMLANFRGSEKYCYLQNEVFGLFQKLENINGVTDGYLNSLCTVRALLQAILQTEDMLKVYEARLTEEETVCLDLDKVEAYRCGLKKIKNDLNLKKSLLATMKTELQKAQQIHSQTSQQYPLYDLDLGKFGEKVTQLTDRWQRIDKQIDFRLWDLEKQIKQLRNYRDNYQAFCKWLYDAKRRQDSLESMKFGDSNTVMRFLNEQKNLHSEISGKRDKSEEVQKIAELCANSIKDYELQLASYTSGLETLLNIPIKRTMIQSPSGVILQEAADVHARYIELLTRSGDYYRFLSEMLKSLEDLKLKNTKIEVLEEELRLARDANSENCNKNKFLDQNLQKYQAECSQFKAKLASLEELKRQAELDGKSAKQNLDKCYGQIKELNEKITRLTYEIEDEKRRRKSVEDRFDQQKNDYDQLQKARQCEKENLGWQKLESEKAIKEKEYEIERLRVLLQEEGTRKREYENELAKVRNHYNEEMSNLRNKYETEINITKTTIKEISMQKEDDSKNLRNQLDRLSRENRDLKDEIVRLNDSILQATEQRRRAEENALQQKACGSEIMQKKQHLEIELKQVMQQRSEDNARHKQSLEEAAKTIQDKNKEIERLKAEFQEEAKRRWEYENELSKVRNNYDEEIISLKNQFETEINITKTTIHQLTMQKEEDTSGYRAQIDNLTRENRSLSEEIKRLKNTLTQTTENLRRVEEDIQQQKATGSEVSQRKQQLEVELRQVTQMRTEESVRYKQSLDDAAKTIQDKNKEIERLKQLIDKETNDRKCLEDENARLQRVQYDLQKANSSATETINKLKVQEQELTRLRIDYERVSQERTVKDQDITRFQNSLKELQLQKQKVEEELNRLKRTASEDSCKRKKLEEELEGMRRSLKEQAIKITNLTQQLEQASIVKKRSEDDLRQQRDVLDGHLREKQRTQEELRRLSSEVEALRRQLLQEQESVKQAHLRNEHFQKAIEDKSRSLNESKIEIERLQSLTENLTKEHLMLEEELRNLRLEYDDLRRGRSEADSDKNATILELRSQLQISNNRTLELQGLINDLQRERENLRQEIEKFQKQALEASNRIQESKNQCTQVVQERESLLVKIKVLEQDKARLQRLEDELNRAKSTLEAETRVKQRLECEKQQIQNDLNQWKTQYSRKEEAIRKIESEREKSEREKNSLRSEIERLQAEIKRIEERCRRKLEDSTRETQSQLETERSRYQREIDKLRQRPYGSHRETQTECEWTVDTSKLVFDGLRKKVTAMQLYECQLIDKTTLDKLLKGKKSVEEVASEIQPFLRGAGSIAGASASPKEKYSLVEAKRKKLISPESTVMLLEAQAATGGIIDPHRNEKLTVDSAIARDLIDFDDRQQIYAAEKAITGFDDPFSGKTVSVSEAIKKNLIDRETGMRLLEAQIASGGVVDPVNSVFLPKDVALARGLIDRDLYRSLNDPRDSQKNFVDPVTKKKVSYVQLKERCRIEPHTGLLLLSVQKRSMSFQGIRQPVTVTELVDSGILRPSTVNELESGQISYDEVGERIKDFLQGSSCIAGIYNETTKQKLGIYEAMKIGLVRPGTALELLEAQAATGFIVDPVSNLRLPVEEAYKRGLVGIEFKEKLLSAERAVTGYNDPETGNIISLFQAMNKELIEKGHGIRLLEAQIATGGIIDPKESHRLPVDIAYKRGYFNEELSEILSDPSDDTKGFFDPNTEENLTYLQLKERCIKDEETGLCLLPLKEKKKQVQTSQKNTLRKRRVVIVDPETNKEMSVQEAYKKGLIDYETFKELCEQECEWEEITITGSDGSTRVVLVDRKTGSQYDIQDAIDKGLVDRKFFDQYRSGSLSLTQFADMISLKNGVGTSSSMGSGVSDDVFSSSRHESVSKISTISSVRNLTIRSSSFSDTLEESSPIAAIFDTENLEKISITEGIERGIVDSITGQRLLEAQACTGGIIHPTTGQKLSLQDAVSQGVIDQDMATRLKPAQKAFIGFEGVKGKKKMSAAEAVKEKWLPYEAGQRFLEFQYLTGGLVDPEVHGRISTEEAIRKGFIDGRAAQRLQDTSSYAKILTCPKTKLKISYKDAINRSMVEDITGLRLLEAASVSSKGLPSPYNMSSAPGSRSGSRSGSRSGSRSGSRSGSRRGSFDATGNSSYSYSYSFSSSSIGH
Sequence of Envoplakin, Q92817 (Q92817 whole entry): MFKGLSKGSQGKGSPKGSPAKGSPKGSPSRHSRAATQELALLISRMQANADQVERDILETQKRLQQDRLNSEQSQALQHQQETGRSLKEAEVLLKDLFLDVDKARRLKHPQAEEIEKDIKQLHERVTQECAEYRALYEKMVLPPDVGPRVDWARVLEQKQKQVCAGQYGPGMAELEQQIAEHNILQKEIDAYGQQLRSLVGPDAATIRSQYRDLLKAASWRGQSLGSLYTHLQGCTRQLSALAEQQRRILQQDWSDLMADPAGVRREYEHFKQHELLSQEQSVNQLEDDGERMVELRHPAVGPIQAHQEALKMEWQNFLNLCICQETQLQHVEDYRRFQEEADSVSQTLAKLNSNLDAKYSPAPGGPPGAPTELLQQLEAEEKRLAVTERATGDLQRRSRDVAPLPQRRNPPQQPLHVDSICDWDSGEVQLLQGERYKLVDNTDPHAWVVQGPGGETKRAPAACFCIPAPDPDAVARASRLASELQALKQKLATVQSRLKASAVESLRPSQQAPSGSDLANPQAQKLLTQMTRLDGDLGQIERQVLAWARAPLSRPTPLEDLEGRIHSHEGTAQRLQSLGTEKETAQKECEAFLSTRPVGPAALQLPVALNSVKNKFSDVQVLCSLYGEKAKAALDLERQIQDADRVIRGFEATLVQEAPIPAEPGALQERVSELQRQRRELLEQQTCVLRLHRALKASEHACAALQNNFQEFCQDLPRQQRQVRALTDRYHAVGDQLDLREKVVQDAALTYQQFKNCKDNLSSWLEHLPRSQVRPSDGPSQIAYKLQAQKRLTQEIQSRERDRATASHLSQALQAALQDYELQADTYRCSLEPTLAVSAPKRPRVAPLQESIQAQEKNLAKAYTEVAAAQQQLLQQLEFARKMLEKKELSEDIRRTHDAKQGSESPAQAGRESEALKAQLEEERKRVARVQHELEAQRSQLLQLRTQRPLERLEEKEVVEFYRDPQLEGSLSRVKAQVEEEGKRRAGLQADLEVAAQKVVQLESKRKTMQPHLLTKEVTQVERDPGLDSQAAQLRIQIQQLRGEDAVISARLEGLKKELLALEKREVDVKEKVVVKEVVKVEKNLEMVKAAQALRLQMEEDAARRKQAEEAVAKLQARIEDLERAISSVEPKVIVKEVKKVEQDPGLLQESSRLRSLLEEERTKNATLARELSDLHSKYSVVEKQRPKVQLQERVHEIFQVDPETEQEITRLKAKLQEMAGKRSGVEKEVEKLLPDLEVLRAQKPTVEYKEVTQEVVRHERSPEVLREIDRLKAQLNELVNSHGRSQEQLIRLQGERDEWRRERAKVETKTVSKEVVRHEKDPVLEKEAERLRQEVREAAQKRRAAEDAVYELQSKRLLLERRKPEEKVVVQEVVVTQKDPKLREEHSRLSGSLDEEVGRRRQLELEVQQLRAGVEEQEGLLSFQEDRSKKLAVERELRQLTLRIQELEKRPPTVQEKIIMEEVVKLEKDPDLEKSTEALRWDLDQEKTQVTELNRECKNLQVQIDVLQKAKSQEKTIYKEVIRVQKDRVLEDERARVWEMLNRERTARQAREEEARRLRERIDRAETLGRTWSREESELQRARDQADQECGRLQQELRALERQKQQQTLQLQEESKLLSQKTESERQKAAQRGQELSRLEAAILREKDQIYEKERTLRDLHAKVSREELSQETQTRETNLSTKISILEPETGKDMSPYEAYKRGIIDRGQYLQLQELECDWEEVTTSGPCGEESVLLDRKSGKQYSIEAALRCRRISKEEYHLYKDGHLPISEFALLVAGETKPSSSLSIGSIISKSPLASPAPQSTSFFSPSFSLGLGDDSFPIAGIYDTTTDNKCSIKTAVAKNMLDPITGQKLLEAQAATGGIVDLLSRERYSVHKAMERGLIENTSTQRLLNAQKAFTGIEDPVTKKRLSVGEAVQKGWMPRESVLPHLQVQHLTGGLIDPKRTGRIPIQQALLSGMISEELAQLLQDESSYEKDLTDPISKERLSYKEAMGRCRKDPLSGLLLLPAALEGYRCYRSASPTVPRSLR

B1: recombinant Stratum Corneum Chymotryptic Enzyme (SCCE), active form obtained from recombinant ProSCCE with agarose-bound trypsin (protein)
chain: EEAQGDKIIDGAPCARGSHPWQVALLSGNQLHCGGVLVNERWVLTAAHCKMNEYTVHLGSDTLGDRRAQRIKASKSFRHPGYSTQTHVNDLMLVKLNSQARLSSMVKKVRLPSRCEPPGTTCTVSGWGTTTSPDVTFPSDLMCVDVKLISPQDCTKVYKDLLENSMLCAGIPDSKKNACNGDSGGPLVCRGTLQGLVSWGTFPCGQPNDPGVYTQVCKFTKWINDTMKKHR
Question: For B1, which “proteolysis (immunoblot of human epidermis extract incubated with active SCCE)” value (“proteolysis” below) [1] is on record?
Answer: Corneodesmosin is found to be proteolysed by recombinant SCCE.

Question: What about the “proteolysis” value [2] of the same protein?
Answer: Desmocollin is found to be proteolysed by SCCE.

Question: And the “proteolysis” value [3]?
Answer: Desmoglein is found to be proteolysed by SCCE.

Question: What about the “proteolysis” value [4] of the same protein?
Answer: Desmoplakin is found to be proteolysed by SCCE.

Question: What about the “proteolysis” value [5] of the same protein?
Answer: Envoplakin is found to be proteolysed by SCCE.

Question: And the “proteolysis” value [6]?
Answer: Plakoglobin is found to be proteolysed by recombinant SCCE.
